Our source for the Kd, koff and kon values is patent US20190112365A1 (EISAI R AND D MANAGEMENT, published 2019).

Where “and” joins values, the source holds several entries; their conditions need not be identical. Equal entries are not always repeated. Where two headings read alike, the source gives them in different places.

Assay [1] deals with T1, Human Tau 2N4R, wild type, recombinant full length (human, UniProt P10636 2-758).
T1 construct: Full length 2N4R isoform; monomer in SPR and ELISA; heparin-induced aggregates or seeds in the functional assays; also called Tau441; Tau-441
The assay is described as follows: SPR BIAcore, mAb captured by anti-human IgG, Tau flowed, 1:1 Langmuir. The procedure:
(§1) All experiments were performed using a BIAcore™ T-100 instrument (GE Healthcare). 10 μL anti-human IgG (monoclonal mouse anti-human Fc) from human antibody capture kit (GE Healthcare) was diluted to 25 μL/mL in 200 μL final immobilization buffer (10 mM sodium acetate, pH 5.0). The flow rate was set to 5 μL/min, flowpath 1. Fifty μL N-hydroxysuccinamide (NETS) and 50 μL 1-ethyl-3-(3-dimethylaminopropyl) carbidiimide (EDC) were mixed and injected for 420 sec to activate the CM5 chip surface. The diluted antibody was injected for 360 seconds followed by 1 M ethanolamine for 420 seconds. The flowpath was then switched to flowpath 2. A new EDC/NHS mixture was prepared and the procedure was repeated for flow cell 2. The surface was conditioned by 2 injections of 30 sec using flowpath 1, 2 at 30 μL/min of 3M MgCl₂. For the anti-mouse surface, 10 μL anti-mouse IgG (polyclonal rabbit anti-mouse IgG) from mouse antibody capture kit (GE Healthcare) was diluted to 30 μL/mL in 324 μL final immobilization buffer (10 mM sodium acetate, pH 5.0). The flow rate was set to 5 μL/min, flowpath 3. Fifty μL NHS and 50 μL EDC were mixed and injected for 420 sec to activate the chip surface. The diluted antibody was injected for 420 sec. 1 M ethanolamine was injected for 420 sec. Flow path was switched to flowpath 4. A new EDC/NHS mixture was prepared and the procedure was repeated for flow cell 4. The surface was conditioned by 2 injections of 30 sec using flowpath 3, 4 at 30 μL/min of 10 mM glycine, pH 1.7.
(§2) Binding of humanized and mouse antibodies were analyzed by surface plasmon resonance (BIAcore™) to determine their relative association rates (kₐ), dissociation rates (kd), and equilibrium binding constants (KD). Anti-mouse or anti-human antibodies were immobilized on a CM5 chip and sample mAbs were captured on the chip. 2N4R Tau was flowed over the chip and binding observed. The binding constants kₐ, kd, and KD were determined using a 1:1 Langmuir fitting model.
A general note: Surface plasmon resonance follows binding to a sensor surface in real time, without labels.

The target in assay [2] is T1, Human Tau 2N4R, wild type, recombinant …. The assay is described as above. The procedure: as §1
as §2, with “BIAcore™” for “surface plasmon resonance (BIAcore™)”, “(ka),” for “(kₐ),”, “model. Both 7G6-HCzu12-based mAbs had similar kₐ and kd values (Table 8). However, the kₐ of 7G6-HCzu11 was decreased, though the kd was unaffected. Therefore, human residues in the Vh3 framework impact binding to Tau.” for “model.”
The source holds these as a separate data set.

T1 sequence (P10636 other isoform, or with tags, fused parts or gaps limits assumed): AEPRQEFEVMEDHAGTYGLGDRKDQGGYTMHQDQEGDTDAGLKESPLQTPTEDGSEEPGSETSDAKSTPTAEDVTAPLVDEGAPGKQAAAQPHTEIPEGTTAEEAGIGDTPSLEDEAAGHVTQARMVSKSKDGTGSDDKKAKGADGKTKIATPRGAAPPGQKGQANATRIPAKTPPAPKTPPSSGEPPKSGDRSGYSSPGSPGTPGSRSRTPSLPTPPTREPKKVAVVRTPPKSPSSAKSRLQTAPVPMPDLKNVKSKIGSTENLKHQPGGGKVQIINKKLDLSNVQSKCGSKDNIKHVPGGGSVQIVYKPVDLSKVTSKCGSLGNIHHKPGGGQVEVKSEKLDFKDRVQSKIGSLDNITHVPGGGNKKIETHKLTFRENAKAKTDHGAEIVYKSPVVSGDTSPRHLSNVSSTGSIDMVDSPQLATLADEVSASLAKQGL

B1: 7G6-HCzu5-LCzu10 (antibody, human IgG1, kappa, V domains shown)
VH: QVQLVQSGAEVKKPGASVKVSCKASGYTFTTYWITWVRQAPGQGLEWMGDIYPGSSISNYNEKFKSRVTMTVDTSTSTAYMELSSLRSEDTAVYYCAREDGYDAWFAYWGQGTLVTVSS
VL: DVVMTQSPLSLPVTLGQPASISCRSSQSIVHSNGNTYLEWFQQRPGQSPRRLIYKVSNRFSGVPDRFSGSGSGTDFTLKISRVEAEDVGVYYCFQGSHVPFTFGQGTKLEIKR
notes: humanized, human IgG1 kappa
By Kd is commonly meant the concentration at which binding is half-saturated. What is called koff is a measure of how fast the partners let go of each other. The term kon denotes the second-order rate constant of association. Take B1: in assay [1], the Kd was 0.162 nM, the koff was found to be 0.00053 s⁻¹ and the kon came to 3.27e+06 M⁻¹ s⁻¹.

B2: 7G6-HCzu7-LCzu6 (antibody, human IgG1, kappa, V domains shown)
VH: QVQLVQSGAEVKKPGASVKVSCKASGYTFTTYWITWVRQAPGQGLEWMGDIYPGSSISNYAQKFQGRVTMTVDTSTSTVYMELSSLRSEDTAVYYCAREDGYDAWFAYWGQGTLVTVSS
VL: DVVMTQSPLSLPVTLGQPASISCRSSQSILHSNGNTYLEWYQQRPGQSPRLLISKVSNRFSGVPDRFSGSGSGTDFTLKISRVEAEDVGVYYCFQGSHVPFTFGQGTKLEIKR
notes: humanized, human IgG1 kappa
On to B2, for which, in assay [1], the Kd turned out to be 0.109 nM, the koff turned out to be 0.000226 s⁻¹ and the kon amounted to 2.08e+06 M⁻¹ s⁻¹.

B3: 7G6-HCzu5-LCzu21 (antibody, human IgG1, kappa, V domains shown)
VH: QVQLVQSGAEVKKPGASVKVSCKASGYTFTTYWITWVRQAPGQGLEWMGDIYPGSSISNYNEKFKSRVTMTVDTSTSTAYMELSSLRSEDTAVYYCAREDGYDAWFAYWGQGTLVTVSS
VL: DVVMTQSPLSLPVTLGQPASISCRSSQSILHSNGNTYLEWFQQRPGQSPRLLISKVSNRFSGVPDRFSGSGSGTDFTLKISRVEAEDVGVYYCFQGSHVPFTFGQGTKLEIKR
notes: humanized, human IgG1 kappa
For B3, in assay [1], the Kd was determined as 0.095 nM, the koff is 0.000278 s⁻¹ and the kon was determined as 2.93e+06 M⁻¹ s⁻¹.

B4: 7G6-HCzu9-LCzu6 (antibody, human IgG1, kappa, V domains shown)
VH: QVQLVQSGAEVKKPGASVKVSCKASGYTFTTYWITWVRQAPGQGLEWMGDIYPGSSICNYAQKFQGRVTMTVDTSTSTVYMELSSLRSEDTAVYYCAREDGYDAWFAYWGQGTLVTVSS
VL: DVVMTQSPLSLPVTLGQPASISCRSSQSILHSNGNTYLEWYQQRPGQSPRLLISKVSNRFSGVPDRFSGSGSGTDFTLKISRVEAEDVGVYYCFQGSHVPFTFGQGTKLEIKR
notes: humanized, human IgG1 kappa
As to B4, in assay [1], the Kd stood at 0.0938 nM, the koff turned out to be 0.000193 s⁻¹ and the kon is 2.06e+06 M⁻¹ s⁻¹.

B5: 7G6-HCzu10-LCzu6 (antibody, human IgG1, kappa, V domains shown)
VH: QVQLVQSGAEVKKPGASVKVSCKASGYTFTTYWITWVRQAPGQGLEWMGDIYPGSSICNYAQKFQGRVTMTRDTSTSTVYMELSSLRSEDTAVYYCAREDGYDAWFAYWGQGTLVTVSS
VL: DVVMTQSPLSLPVTLGQPASISCRSSQSILHSNGNTYLEWYQQRPGQSPRLLISKVSNRFSGVPDRFSGSGSGTDFTLKISRVEAEDVGVYYCFQGSHVPFTFGQGTKLEIKR
notes: humanized, human IgG1 kappa
Regarding B5, in assay [1], the Kd turned out to be 0.108 nM, the koff was 0.000213 s⁻¹ and the kon came out at 1.98e+06 M⁻¹ s⁻¹.

B6: 7G6-HCzu5-LCzu22 (antibody, human IgG1, kappa, V domains shown)
VH: QVQLVQSGAEVKKPGASVKVSCKASGYTFTTYWITWVRQAPGQGLEWMGDIYPGSSISNYNEKFKSRVTMTVDTSTSTAYMELSSLRSEDTAVYYCAREDGYDAWFAYWGQGTLVTVSS
VL: DVVMTQSPLSLPVTLGQPASISCRSSQSILHSNGNTYLEWYQQRPGQSPRRLISKVSNRFSGVPDRFSGSGSGTDFTLKISRVEAEDVGVYYCFQGSHVPFTFGQGTKLEIKR
notes: humanized, human IgG1 kappa; also called 7G6-LCzu22
For B6, in assay [1], the Kd worked out at 1.48 nM, the koff amounted to 0.00277 s⁻¹ and the kon was 1.88e+06 M⁻¹ s⁻¹.

B7: 7G6-HCzu6-LCzu6 (antibody, human IgG1, kappa, V domains shown)
VH: QVQLVQSGAEVKKPGASVKVSCKASGYTFTTYWITWVRQAPGQGLEWMGDIYPGSSISNYNEKFKSRVTMTVDTSTSTVYMELSSLRSEDTAVYYCAREDGYDAWFAYWGQGTLVTVSS
VL: DVVMTQSPLSLPVTLGQPASISCRSSQSILHSNGNTYLEWYQQRPGQSPRLLISKVSNRFSGVPDRFSGSGSGTDFTLKISRVEAEDVGVYYCFQGSHVPFTFGQGTKLEIKR
notes: humanized, human IgG1 kappa
In the case of B7, in assay [1], the Kd was 0.0961 nM, the koff came to 0.000213 s⁻¹ and the kon was found to be 2.21e+06 M⁻¹ s⁻¹.

B8: 7G6-HCzu17-LCzu12 (antibody, human IgG1, kappa, V domains shown)
VH: EVQLLESGGGLVQPGGSLRLSCAASGYTFTTYWITWVRQAPGKGLEWVSDIYPGSSICNYNEKFKSRFTISVDNSKNTLYLQMNSLRAEDTAVYYCAREDGYDAWFAYWGQGTLVTVSS
VL: DVQMTQSPSSLSASVGDRVTITCRSSQSILHSNGNTYLEWYQQKPGKAPKLLICKVSNRFSGVPSRFSGSGSGTDFTLTISSLQPEDFATYYCFQGSHVPFTFGQGTKLEIKR
notes: humanized, human IgG1 kappa
Turning to B8, in assay [2], the Kd amounted to 0.073 nM, the koff was 0.000124 s⁻¹ and the kon turned out to be 1.7e+06 M⁻¹ s⁻¹.

B9: 7G6-HCzu12-LCzu13 (antibody, human IgG1, kappa)
heavy: not shown
light: DVQMTQSPSSLSASVGDRVTITCRSSQSILHSNGNTYLEWYQQKPGKAPKLLIYKVSNRFSGVPSRFSGSGSGTDFTLTISSLQPEDFATYYCFQGSHVPFTFGQGTKLEIKRTVAAPSVFIFPPSDEQLKSGTASVVCLLNNFYPREAKVQWKVDNALQSGNSQESVTEQDSKDSTYSLSSTLTLSKADYEKHKVYACEVTHQGLSSPVTKSFNRGEC
notes: humanized, human IgG1 kappa
As to B9, in assay [2], the Kd came to 0.0888 nM, the koff stood at 0.000124 s⁻¹ and the kon worked out at 1.4e+06 M⁻¹ s⁻¹.

B10: 7G6-HCzu12-LCzu15 (antibody, human IgG1, kappa, V domains shown)
VH: EVQLLESGGGLVQPGGSLRLSCAASGYTFTTYWITWVRQAPGKGLEWVGDIYPGSSICNYNEKFKSRFTISVDNSKSTAYLQMNSLRAEDTAVYYCAREDGYDAWFAYWGQGTLVTVSS
VL: DVQMTQSPSSLSASVGDRVTITCRSSQSILHSNGNTYLEWYQQKPGKAPKLLISKVSNRFSGVPSRFSGSGSGTDFTLTISSLQPEDFATYYCFQGSHVPFTFGQGTKLEIKR
notes: humanized, human IgG1 kappa
With B10, in assay [2], the Kd is 0.0959 nM, the koff turned out to be 0.000141 s⁻¹ and the kon was determined as 1.47e+06 M⁻¹ s⁻¹.

B11: 7G6-HCzu12-LCzu11 (antibody, human IgG1, kappa)
heavy: not shown
light: DIQMTQSPSSLSASVGDRVTITCRSSQSILHSNGNTYLEWYQQKPGKAPKLLIYKVSNRFSGVPSRFSGSGSGTDFTLTISSLQPEDFATYYCFQGSHVPFTFGQGTKLEIKRTVAAPSVFIFPPSDEQLKSGTASVVCLLNNFYPREAKVQWKVDNALQSGNSQESVTEQDSKDSTYSLSSTLTLSKADYEKHKVYACEVTHQGLSSPVTKSFNRGEC
notes: humanized, human IgG1 kappa
As to B11, in assay [2], the Kd is 0.132 nM, the koff is 0.000181 s⁻¹ and the kon came to 1.38e+06 M⁻¹ s⁻¹.

B12: 7G6-HCzu12-LCzu16 (antibody, human IgG1, kappa, V domains shown)
VH: EVQLLESGGGLVQPGGSLRLSCAASGYTFTTYWITWVRQAPGKGLEWVGDIYPGSSICNYNEKFKSRFTISVDNSKSTAYLQMNSLRAEDTAVYYCAREDGYDAWFAYWGQGTLVTVSS
VL: DVQMTQSPSSLSASVGDRVTITCRSSQSIVHSNGNTYLEWYQQKPGKAPKLLISKVSNRFSGVPSRFSGSGSGTDFTLTISSLQPEDFATYYCFQGSHVPFTFGQGTKLEIKR
notes: humanized, human IgG1 kappa
Consider B12, for which, in assay [2], the Kd was 0.099 nM, the koff stood at 0.000148 s⁻¹ and the kon came out at 1.49e+06 M⁻¹ s⁻¹.

B13: 7G6-HCzu11-LCzu11 (antibody, human IgG1, kappa, V domains shown)
VH: EVQLLESGGGLVQPGGSLRLSCAASGYTFTTYWITWVRQAPGKGLEWVSDIYPGSSICNYNEKFKSRFTISRDNSKNTLYLQMNSLRAEDTAVYYCAKEDGYDAWFAYWGQGTLVTVSS
VL: DIQMTQSPSSLSASVGDRVTITCRSSQSILHSNGNTYLEWYQQKPGKAPKLLIYKVSNRFSGVPSRFSGSGSGTDFTLTISSLQPEDFATYYCFQGSHVPFTFGQGTKLEIKR
notes: humanized, human IgG1 kappa
For B13, in assay [2], the Kd stood at 0.205 nM, the koff came to 0.000175 s⁻¹ and the kon amounted to 853000 M⁻¹ s⁻¹.

B14: 7G6-HCzu12-LCzu12 (antibody, human IgG1, kappa)
heavy: not shown
light: DVQMTQSPSSLSASVGDRVTITCRSSQSILHSNGNTYLEWYQQKPGKAPKLLICKVSNRFSGVPSRFSGSGSGTDFTLTISSLQPEDFATYYCFQGSHVPFTFGQGTKLEIKRTVAAPSVFIFPPSDEQLKSGTASVVCLLNNFYPREAKVQWKVDNALQSGNSQESVTEQDSKDSTYSLSSTLTLSKADYEKHKVYACEVTHQGLSSPVTKSFNRGEC
notes: humanized, human IgG1 kappa
With B14, in assay [2], the Kd is 0.129 nM and 0.0875 nM; the koff is 0.000193 s⁻¹ and 0.000151 s⁻¹; the kon is 1.49e+06 M⁻¹ s⁻¹ and 1.72e+06 M⁻¹ s⁻¹.

B15: 7G6-HCzu12-LCzu14 (antibody, human IgG1, kappa)
heavy: not shown
light: DIQMTQSPSSLSASVGDRVTITCRSSQSILHSNGNTYLEWYQQKPGKAPKLLICKVSNRFSGVPSRFSGSGSGTDFTLTISSLQPEDFATYYCFQGSHVPFTFGQGTKLEIKRTVAAPSVFIFPPSDEQLKSGTASVVCLLNNFYPREAKVQWKVDNALQSGNSQESVTEQDSKDSTYSLSSTLTLSKADYEKHKVYACEVTHQGLSSPVTKSFNRGEC
notes: humanized, human IgG1 kappa
Take B15: in assay [2], the Kd was found to be 0.0689 nM, the dissociation rate constant (koff) was found to be 0.000119 s⁻¹ and the kon turned out to be 1.73e+06 M⁻¹ s⁻¹.
